# Test results from the supplement of paper PMC7877785.
# ± gives the uncertainty stated by the source.
# Test: self-splicing fitness, log relative to wild type (ln ratio); higher = more splicing; Tetrahymena group I intron in knt gene, E. coli kanamycin selection, DiMSum; sequences stand for … in CUCUCU…GGAGGGAAAAGUUAUCAGGCAUGCACCUGGUAGCUAGUCUUUAAACCAAUAGAUUGCAUCGGUUUAAAAGGCAAGACCGUCAAAUUGCGGGAAAGGGGUCAACAGCCGUUCAGUACCAAGUCUCAGGGGAAACUUUGAGAUGGCCUUGCAAAGGGUAUGGUAAUAAGCUGACGGACAUGGUCCUAACCACGCAGCCAAGUCCUAAGUCAACAGAUCUUCUGUUGAUAUGGAUGCAGUUCACAGACUAAAUGUCGGUCGGGGAAGAUGUAUUCUUCUCAUAAGAUAUAGUCGGACCUCUCCUUAAUGGGAGCUAGCGGAUGAAGUGAUGCAACACUGGAGCCGCUGGGAACUAAUUUGUAUGCGAAAGUAUAUUGAUUAGUUUUGGAGUACUCGUGGUCG
# Procedure, shortened: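 Fitness was computed with DiMSum as the error-weighted combination of replicate fold changes, kanamycin versus none, each normalised to wild type. The library randomised all eight intron nucleotides of the P1ex region, with the intron placed in the knt kanamycin-resistance gene on pET-22b(+) in E. coli BL21(DE3). Six replicate transformations were grown overnight at 37°C or 30°C on LB agar with or without 25 μg/mL kanamycin, plus 100 μg/mL carbenicillin, 50 μM IPTG and 0.2% rhamnose. Pooled colonies were amplicon-sequenced on an Illumina HiSeq 2500.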
Sequence,self-splicing fitness (ln) (30 °C),self-splicing fitness (ln) (37 °C)
GGAAAGCAAUAUUACGUGGU,-3.11 ± 0.18,-1.9 ± 0.16
GGACAGCAAUAUUACGAAAG,-3.73 ± 0.33,-2.88 ± 0.43
GGACAGCAAUAUUACGAACC,-1.23 ± 0.27,-0.895 ± 0.23
GGACAGCAAUAUUACGAACU,-0.198 ± 0.08,0.442 ± 0.083
GGACAGCAAUAUUACGAUAA,-1.81 ± 0.073,-0.876 ± 0.08
GGACAGCAAUAUUACGCAGC,-1.1 ± 0.083,-0.558 ± 0.085
GGACAGCAAUAUUACGCAGU,-4.28 ± 0.36,-1.5 ± 0.24
GGACAGCAAUAUUACGCCCA,-0.886 ± 0.45,-0.212 ± 0.36
GGACAGCAAUAUUACGCCUU,-0.676 ± 0.057,-0.194 ± 0.069
GGACAGCAAUAUUACGGAAC,-0.76 ± 0.1,-0.102 ± 0.11
GGACAGCAAUAUUACGGAAU,-1.19 ± 0.089,-0.191 ± 0.12
GGACAGCAAUAUUACGGCAC,-0.469 ± 0.12,-0.25 ± 0.15
GGACAGCAAUAUUACGGCUC,0.0372 ± 0.08,0.377 ± 0.11
GGACAGCAAUAUUACGGCUG,-3.23 ± 0.31,-0.371 ± 0.18
GGACAGCAAUAUUACGGGGU,-3.5 ± 0.17,-2.17 ± 0.12
GGACAGCAAUAUUACGGUCC,-3.67 ± 0.26,-2.28 ± 0.23
GGACAGCAAUAUUACGGUGU,-2.84 ± 0.11,-1.89 ± 0.12
GGACAGCAAUAUUACGGUUG,-1.41 ± 0.067,-0.752 ± 0.083
GGACAGCAAUAUUACGGUUU,-2.12 ± 0.072,-0.504 ± 0.073
GGACAGCAAUAUUACGUAUC,-0.918 ± 0.093,-0.855 ± 0.11
GGACAGCAAUAUUACGUGCA,-0.37 ± 0.085,-0.64 ± 0.09
GGACAGCAAUAUUACGUUUG,-0.577 ± 0.04,-0.1 ± 0.058

Sequence,self-splicing fitness (ln) (30 °C),self-splicing fitness (ln) (37 °C)
GGAGAGCAAUAUUACGAAUA,-2.51 ± 0.26,–
GGAGAGCAAUAUUACGAGUA,-3.36 ± 0.41,-2.48 ± 0.32
GGAGAGCAAUAUUACGAUCG,-1.88 ± 0.14,-0.426 ± 0.16
GGAGAGCAAUAUUACGCGGA,–,-1.29 ± 0.34
GGAGAGCAAUAUUACGCUCA,-2.77 ± 0.27,-0.851 ± 0.26
GGAGAGCAAUAUUACGCUGG,-2.21 ± 0.29,-2.41 ± 0.44
GGAGAGCAAUAUUACGGAUA,-4.36 ± 0.46,-2.05 ± 0.24
GGAGAGCAAUAUUACGUAAG,-2.82 ± 0.19,-0.478 ± 0.21
GGAGAGCAAUAUUACGUGCG,-1.7 ± 0.14,-2.06 ± 0.23
GGAUAGCAAUAUUACGAAAC,-1.67 ± 0.31,-0.834 ± 0.23
GGAUAGCAAUAUUACGAAUU,-2.56 ± 0.21,-1.57 ± 0.19
GGAUAGCAAUAUUACGACCC,-0.96 ± 0.23,–
GGAUAGCAAUAUUACGAGGC,-3.93 ± 0.31,-2.43 ± 0.37
GGAUAGCAAUAUUACGCAGC,-3.14 ± 0.25,-1.59 ± 0.2
GGAUAGCAAUAUUACGCAUG,-0.819 ± 0.12,0.00525 ± 0.14
GGAUAGCAAUAUUACGCCGA,-0.933 ± 0.13,-0.0698 ± 0.14
GGAUAGCAAUAUUACGCGAU,-3.65 ± 0.3,-2.91 ± 0.47
GGAUAGCAAUAUUACGCGCA,-0.345 ± 0.14,0.0709 ± 0.14
GGAUAGCAAUAUUACGCGCU,-2.14 ± 0.23,-0.904 ± 0.23
GGAUAGCAAUAUUACGCUAG,-2.26 ± 0.19,-1.21 ± 0.18
GGAUAGCAAUAUUACGCUUC,-3.86 ± 0.35,–
